Reference: the supplement of paper PMC9170038

Tested on: MS2 coat protein
Assay: apparent KD of MS2 coat protein; designed switch direction (-1 OFF switch, 1 ON switch): -1; higher = weaker reporter binding
Method in brief: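 Three titration conditions were used: no input, 200 uM small-molecule ligand, and an oligonucleotide input. In each, SNAP-549-labelled MS2 coat protein was raised from 0.7 or 1.5 nM, doubling, to 3 µM over designed RNA switches transcribed on Illumina chips by stalled E. coli RNA polymerase. Curve fits of normalised cluster fluorescence gave values whose per-design median over clusters is the apparent KD.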

[1] = Eterna round: R95, input ligand: microRNA oligo, concentration not stated
[2] = input ligand: microRNA oligo, concentration not stated
[3] = Eterna round: R95, input ligand: FMN 200 uM
[4] = Eterna round: R95, input ligand: none

Row | Sequence | apparent KD of MS2 coat protein [1] | apparent KD of MS2 coat protein (input ligand: FMN 200 uM) | apparent KD of MS2 coat protein (input ligand: none) | apparent KD of MS2 coat protein [2] | apparent KD of MS2 coat protein [3] | apparent KD of MS2 coat protein [4]
1 | CUUUUGUGAGGAUAUCAGUAGUAGAACAAUAGUACUACUACUGAGAAGGCACAUGAGGAUCACCCAUGUUCCUC [Fiskers Ex 4 Super stable 44 mod 2] (puzzle: Exclusion 4) | 52.3 nM |  |  |  |  | 
2 | AUUGUAGUUGUGAGGAUAUCGUUGAUUUUUUGAAACGAGAAGGCACAUGAGGAUCACCCAUGUUAGUUGUUGGU [JR_BMOE4_Sub056] (puzzle: Brourd's mod of Exclusion 4) | 65.4 nM |  |  |  |  | 
3 | CAGUACUGAGGAUAUACAUGAGGAUCACCCAUGUGUUCCAGCUAGGAAACUAGCAAUGGAAGAAGGCAGUACUG [Salish 065 m1] (Eterna round: R97, puzzle: Exclusion 3) |  | 18.8 nM | 21.6 nM |  |  | 
4 | ACAUGAGGAUCACCCAUGUCUGGCUGGUCCGCUCCGGCUGUUGAGGAUAUAGUUCGGUGUCCGCGCUAGAAGGUGAGGGCUGGC [Aenatbe mod 35] (Eterna round: R96, puzzle: Exclusion NG 3) |  | 21.8 nM | 31.3 nM | 21.2 nM |  | 
5 | AAGAGUGCAGGAUAUACUUGUUAGGACGGUUGGAUGGUUUGACAUGAGGAUCACCCAUGUAGAAGGGCAGAGAG [JR_Exclu2_Sub053] (puzzle: Exclusion 2) | 70.5 nM |  |  |  |  | 
6 | AUAAUGUAAGGAUAUCAGUCGACUAGCCUCGGCUAGUCGACUGAGAAGGUACAUGAGGAUCACCCAUGUAGAUC [E4/19-A2] (Eterna round: R97, puzzle: Exclusion 4) |  | 352 nM | 47.8 nM |  |  | 
7 | CAGUAUUGAGGAUAUACAUGAGGAUCACCCAUGUGUUCCAGCUAGGAAACUAGCAAAAGUAGAAGGCAGUACUG [salish99_ex3_r3_085] (puzzle: Exclusion 3) | 21 nM |  |  |  |  | 
8 | UGUUGUCGCGCAGGAUAUGAGGAUCACCCAUAUCAGGAUAUCGAAAGAGAAGUUCUGAGGAUCACCCAGAAGGGCGGGACAACU [pwkr exNG2 2xF5 2xFMN.33] (Eterna round: R96, puzzle: Exclusion NG 2) |  | 342 nM | 47.8 nM | 38 nM |  | 
9 | UCAGUGCUGCGAGGAUAUACAUGAGGAUCACCCAUGUAAAUGUGUGAGGCUUUGCCUCACACAAUGUAGAAGGCGCAGUACUGU [Mat - Exclusion NG 2 - Mod of JL - D3] (Eterna round: R96, puzzle: Exclusion NG 2) |  | 17.2 nM | 14.3 nM | 11.1 nM |  | 
10 | AUAGUAUUGCAAGGAUAUCGAUUUAGUUUGUUUCGAGAAGGUGCUUUAGUUUAUACCUCUUGUUUACAUGAGGAUCACCCAUGU [JR_ExcNG1_Sub049] (Eterna round: R96, puzzle: Exclusion NG 1) |  | 18.5 nM | 27.5 nM | 19.2 nM |  | 
11 | ACAUGAGGAUCACCCAUGUCGACGAAAAGGCUCAUGUAGAGUGAGGAUAUGUGAGACGAACGAGAACAGAAGGCACAAGACAGG [Deportation 4 - Jieux - Exclusion NG 3] (Eterna round: R96, puzzle: Exclusion NG 3) |  | 85.8 nM | 52.3 nM | 58.9 nM |  | 
12 | AAUAAUAAAGUCAGGAUAUCUAGAGCUUCGGCUCUAGAGAAGGGACAUGAGGAUCACCCAUGUCACUCAAUAAU [BmEx4/3-D1] (Eterna round: R97, puzzle: Brourd's mod of Exclusion 4) |  | 21.6 nM | 15.1 nM |  |  | 
13 | UUAUAAAGAGUGAGGAUAUGCUGGUCCAUGGAUCAGCAGAAGGCACAUGAGGAUCACCCAUGUAAAAUAAUAUU [Mat - Exclusion 4 - JL Mod - D41] (puzzle: Brourd's mod of Exclusion 4) | 18.7 nM |  |  |  |  | 
14 | AUAAUGUCAGGAUAUACAUGAGGAUCACCCAUGUUAGAAAGAGAAGAAGAGAAACUAUGUAGAAGGGACAAUAA [Hair Trigger] (puzzle: Exclusion 3) | 20.6 nM |  |  |  | 43.7 nM | 29.1 nM
15 | UUUCGGCGGACCGUGGCUUUUUGCUCGUCUUAUGCUUCGACAUGAGGAUCACCCAUGUGGUGGUGGUCCGUUGUUGU [Grok-var2-12 mod JAL] (puzzle: Sensor v3, turn-off variant 2) | 20.3 nM |  |  |  | 29.9 nM | 48.9 nM
16 | UUAAUUAAUUUAAUAUAAGAUCACAUGAGGAUCACCCAUGUAUAGGAUAUCAGCUCGAUUAGAGCUGAGAAGGAUACAUAAUAU [ExNG3/2-B1] (Eterna round: R96, puzzle: Exclusion NG 3) |  | 135 nM | 216 nM | 188 nM |  | 
17 | CCAAUACAAGGAUAUGCGAUGCAUGUCAGGUUAGUAGACAGACAUGAGGAUCACCCAUGUAGAAGGUGUGUUGG [Eternabot (L2) Solution 55] (Eterna round: R97, puzzle: Exclusion 2) |  | 75.6 nM | 41.4 nM |  |  | 
18 | GUCACUAGAGGAUAUACAAUGGUAUAUGAUCCUAGAGACAUACAUGAGGAUCACCCAUGUAGAAGGCUAGUAUU [Exclusion 2 - 5] (Eterna round: R96, puzzle: Exclusion 2) |  | 52.9 nM | 52.5 nM | 53.1 nM |  | 
19 | UUGAAGUCAUCAGGAUAUAGUAUAAAAGACAUAUAUUUUUUCAAACAUGAGGAUCACCCAUGUCGCUAGAAGGGAUUAUAGAUU [JR_ExcNG2_Sub081] (Eterna round: R96, puzzle: Exclusion NG 2) |  |  |  | 34.7 nM |  | 
20 | GAAAACGCUGAGGAUAUUUCUGAUCAAAGCAGCAAAGAAGGCAGCACAUGAGGAUCACCCAUGUGGUCUUCAAU [Mat - Exclusion 6 - JL Mod - D11] (Eterna round: R97, puzzle: Exclusion 6) |  | 445 nM | 33 nM |  |  | 
21 | CUGUGUAGACAGGAUAUGCUGUACAAAAGUACAGCAGAAGGGUCUACAUGAGGAUCACCCAUGUAUACCUCAUG [)mei Ex6 B25] (Eterna round: R97, puzzle: Exclusion 6) |  | 735 nM | 88.8 nM |  |  | 
22 | AAGAAGUGAGGAUAUCACCCUGCGCUACAGUUGCGCAGGCAUGAGAAGGCACUUGAGGAUCACCCAAGUCCUAU [Bitiri] (Eterna round: R97, puzzle: Exclusion 4) |  | 212 nM | 23.6 nM |  |  | 
23 | UGAGAACAUGAGGAUCACCCAUGUAAGGAUAUGCGAAGAGUUCGGAGAGGUUGAGGAGGCAGAAGGUACAGGAG [JR_Exclu1_Sub043] (puzzle: Exclusion 1) | 35.8 nM |  |  |  | 46.8 nM | 58.7 nM
24 | GGUAUACAUGAGGAUCACCCAUGUCAGGAUAUGGAAACCUGUGCCGAAAGGCACAGGGCCAGAAGGGACGAUAG [AK-MS2ROC-r4-exclusion1-5.3] (Eterna round: R97, puzzle: Exclusion 1) |  | 93.7 nM | 82.9 nM |  |  | 
25 | GGAUCUUGGGUCAGGAUAUGCUGACAGCCAUGUCAGCAGAAGGGACAUGAGGAUCACCCAUGUGCUCGGUUUUG [Magic-19] (puzzle: Brourd's mod of Exclusion 4) | 10.1 nM |  |  |  |  | 
26 | AAGGGUGCUUUCGGAACGACAUGAGGAUCACCCAUGUAGACUGAGGAUAUCUACUUCUAAGGACGGGAGAAGGCAGUGUAAUGC [Ex NG3 #69] (Eterna round: R96, puzzle: Exclusion NG 3) |  | 47.8 nM | 42.6 nM | 28.3 nM |  | 
